Here are results for four substances from paper PMC8791637.

Experiment [1] deals with Focal adhesion kinase (UniProt Q05397).
The target of experiment [2] is N-WASP (UniProt O00401).
Experiment [3] concerns the target Nck (UniProt P16333).
Experiment [4] has as its target phosphorylated Nephrin (UniProt O60500).
The target in experiment [5] is Focal adhesion kinase (UniProt Q05397). The source holds these as a separate data set.
Experiment [6] concerns the target His6-sumo-kindlin (UniProt Q96AC1).

Sequence of His6-sumo-kindlin (from UniProt Q96AC1 1-680) (natural protein) (Q96AC1 whole entry): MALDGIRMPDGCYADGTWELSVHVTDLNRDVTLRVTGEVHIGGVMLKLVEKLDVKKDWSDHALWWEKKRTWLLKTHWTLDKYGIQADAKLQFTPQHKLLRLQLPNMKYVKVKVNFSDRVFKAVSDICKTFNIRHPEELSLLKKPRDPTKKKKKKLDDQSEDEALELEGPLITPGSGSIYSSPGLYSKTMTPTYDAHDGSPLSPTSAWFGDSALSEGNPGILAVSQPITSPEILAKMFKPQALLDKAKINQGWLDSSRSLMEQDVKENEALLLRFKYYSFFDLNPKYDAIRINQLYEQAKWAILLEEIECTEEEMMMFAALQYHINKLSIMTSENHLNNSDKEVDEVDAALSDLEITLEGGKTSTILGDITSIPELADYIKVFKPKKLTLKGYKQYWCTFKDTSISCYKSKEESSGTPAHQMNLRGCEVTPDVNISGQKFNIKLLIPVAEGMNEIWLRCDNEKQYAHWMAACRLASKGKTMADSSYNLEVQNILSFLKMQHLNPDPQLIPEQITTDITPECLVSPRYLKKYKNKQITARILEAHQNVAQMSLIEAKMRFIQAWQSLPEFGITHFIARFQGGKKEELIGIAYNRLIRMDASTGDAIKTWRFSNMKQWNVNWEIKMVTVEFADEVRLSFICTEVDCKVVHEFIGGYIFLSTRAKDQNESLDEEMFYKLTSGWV
Sequence of N-WASP (O00401 whole entry): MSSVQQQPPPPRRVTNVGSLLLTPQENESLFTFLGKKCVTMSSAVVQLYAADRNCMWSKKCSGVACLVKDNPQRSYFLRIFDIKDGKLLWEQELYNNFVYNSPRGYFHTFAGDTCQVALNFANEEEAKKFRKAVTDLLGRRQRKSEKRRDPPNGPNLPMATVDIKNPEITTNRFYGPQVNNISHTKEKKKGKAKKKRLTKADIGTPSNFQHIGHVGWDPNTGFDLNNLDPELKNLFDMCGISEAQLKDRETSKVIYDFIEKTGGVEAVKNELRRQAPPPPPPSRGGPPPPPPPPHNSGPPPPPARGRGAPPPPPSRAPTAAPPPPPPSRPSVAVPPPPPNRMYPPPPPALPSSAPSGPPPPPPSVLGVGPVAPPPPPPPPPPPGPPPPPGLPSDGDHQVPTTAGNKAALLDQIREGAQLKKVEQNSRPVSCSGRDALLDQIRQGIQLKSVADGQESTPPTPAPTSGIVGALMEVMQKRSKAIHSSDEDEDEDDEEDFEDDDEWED
Sequence of His6-sumo-kindlin (UniProt Q96AC1) (Q96AC1 whole entry): as the sequence (Q96AC1 whole entry) above
Sequence of phosphorylated Nephrin (O60500 23-1241): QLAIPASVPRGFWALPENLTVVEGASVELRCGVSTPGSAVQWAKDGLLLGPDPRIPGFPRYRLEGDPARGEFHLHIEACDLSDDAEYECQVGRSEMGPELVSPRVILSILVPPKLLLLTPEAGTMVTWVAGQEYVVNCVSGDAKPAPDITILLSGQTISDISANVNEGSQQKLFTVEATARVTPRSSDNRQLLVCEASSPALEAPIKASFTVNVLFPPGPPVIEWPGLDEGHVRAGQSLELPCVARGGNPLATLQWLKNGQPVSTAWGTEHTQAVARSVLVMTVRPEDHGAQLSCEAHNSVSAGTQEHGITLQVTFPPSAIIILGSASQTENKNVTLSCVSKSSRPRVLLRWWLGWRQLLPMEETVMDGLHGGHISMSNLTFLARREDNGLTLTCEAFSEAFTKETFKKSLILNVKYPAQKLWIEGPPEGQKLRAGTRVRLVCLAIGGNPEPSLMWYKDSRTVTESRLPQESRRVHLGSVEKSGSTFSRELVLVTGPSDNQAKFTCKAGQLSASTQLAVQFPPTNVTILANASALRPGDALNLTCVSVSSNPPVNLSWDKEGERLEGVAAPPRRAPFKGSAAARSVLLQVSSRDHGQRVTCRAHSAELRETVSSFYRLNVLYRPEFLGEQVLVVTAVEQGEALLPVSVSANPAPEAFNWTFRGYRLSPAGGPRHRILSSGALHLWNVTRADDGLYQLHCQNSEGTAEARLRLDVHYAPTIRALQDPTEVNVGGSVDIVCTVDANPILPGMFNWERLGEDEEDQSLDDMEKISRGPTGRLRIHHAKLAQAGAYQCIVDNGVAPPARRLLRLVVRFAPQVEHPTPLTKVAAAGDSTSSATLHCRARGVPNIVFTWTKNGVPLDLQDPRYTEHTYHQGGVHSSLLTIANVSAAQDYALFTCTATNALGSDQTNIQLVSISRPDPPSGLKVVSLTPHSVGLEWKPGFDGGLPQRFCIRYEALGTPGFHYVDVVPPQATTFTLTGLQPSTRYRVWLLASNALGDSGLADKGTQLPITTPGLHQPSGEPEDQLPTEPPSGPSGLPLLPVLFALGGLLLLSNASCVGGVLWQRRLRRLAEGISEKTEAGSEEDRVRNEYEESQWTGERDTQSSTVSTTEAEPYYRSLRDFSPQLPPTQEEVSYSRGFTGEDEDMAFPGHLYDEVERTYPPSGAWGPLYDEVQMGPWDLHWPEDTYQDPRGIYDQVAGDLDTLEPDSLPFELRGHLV
Sequence of Paxillin (P49023 whole entry): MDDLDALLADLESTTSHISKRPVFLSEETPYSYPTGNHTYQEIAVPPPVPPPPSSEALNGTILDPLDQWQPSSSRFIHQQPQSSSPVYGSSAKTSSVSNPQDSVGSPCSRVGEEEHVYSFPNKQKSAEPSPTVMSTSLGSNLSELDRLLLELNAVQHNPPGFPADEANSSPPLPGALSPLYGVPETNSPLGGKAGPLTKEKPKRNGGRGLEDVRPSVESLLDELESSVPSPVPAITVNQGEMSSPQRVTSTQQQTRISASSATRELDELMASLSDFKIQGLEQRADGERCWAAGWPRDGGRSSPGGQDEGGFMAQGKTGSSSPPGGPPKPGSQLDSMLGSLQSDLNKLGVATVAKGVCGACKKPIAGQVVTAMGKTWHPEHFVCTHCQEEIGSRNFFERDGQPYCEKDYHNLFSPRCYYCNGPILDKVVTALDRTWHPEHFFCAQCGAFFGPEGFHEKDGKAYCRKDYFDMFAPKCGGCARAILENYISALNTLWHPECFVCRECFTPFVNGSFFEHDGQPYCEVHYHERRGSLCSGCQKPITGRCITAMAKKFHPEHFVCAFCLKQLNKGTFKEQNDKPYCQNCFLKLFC
Sequence of Focal adhesion kinase (from UniProt Q05397 1-1052) (enzyme) (Q05397 whole entry): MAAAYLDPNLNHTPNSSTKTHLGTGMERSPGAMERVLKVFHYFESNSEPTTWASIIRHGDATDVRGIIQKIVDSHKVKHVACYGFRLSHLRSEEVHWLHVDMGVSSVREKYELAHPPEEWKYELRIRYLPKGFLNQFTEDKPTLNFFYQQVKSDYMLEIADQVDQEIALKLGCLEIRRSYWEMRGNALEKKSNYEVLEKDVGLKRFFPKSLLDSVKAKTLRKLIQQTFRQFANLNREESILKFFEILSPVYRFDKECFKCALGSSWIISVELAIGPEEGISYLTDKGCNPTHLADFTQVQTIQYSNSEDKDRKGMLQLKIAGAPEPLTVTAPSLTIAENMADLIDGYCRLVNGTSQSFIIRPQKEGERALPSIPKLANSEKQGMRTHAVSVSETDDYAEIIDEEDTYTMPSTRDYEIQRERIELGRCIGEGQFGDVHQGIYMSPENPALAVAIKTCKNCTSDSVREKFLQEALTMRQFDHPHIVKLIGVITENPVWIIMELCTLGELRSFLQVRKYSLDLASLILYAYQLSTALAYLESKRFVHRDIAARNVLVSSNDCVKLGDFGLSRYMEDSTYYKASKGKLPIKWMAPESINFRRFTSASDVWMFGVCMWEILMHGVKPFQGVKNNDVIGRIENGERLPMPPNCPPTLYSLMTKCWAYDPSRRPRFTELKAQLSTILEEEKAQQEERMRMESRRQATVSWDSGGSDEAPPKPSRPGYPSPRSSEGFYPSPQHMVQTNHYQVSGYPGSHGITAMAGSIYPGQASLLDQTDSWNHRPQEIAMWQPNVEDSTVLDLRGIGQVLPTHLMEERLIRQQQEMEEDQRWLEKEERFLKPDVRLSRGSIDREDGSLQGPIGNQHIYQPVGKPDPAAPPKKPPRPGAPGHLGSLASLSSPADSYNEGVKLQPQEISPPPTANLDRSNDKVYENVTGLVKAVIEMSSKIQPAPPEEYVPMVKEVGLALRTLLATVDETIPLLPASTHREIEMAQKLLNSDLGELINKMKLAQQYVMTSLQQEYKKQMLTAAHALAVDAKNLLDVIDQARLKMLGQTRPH
Sequence of Focal adhesion kinase (UniProt Q05397) (Q05397 whole entry): as above
Sequence of β1 integrin cytoplasmic tail-GFP (P05556 752-798): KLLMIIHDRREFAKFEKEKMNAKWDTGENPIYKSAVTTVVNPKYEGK

As for “Focal adhesion kinase (from UniProt Q05397 1-1052) (enzyme)”, the solution turbidity (absorbance at 350 nm) with increasing concentrations of FAK; concentration from which turbidity rises in experiment [1] came out at 100 nM. As to “His6-sumo-kindlin (from UniProt Q96AC1 1-680) (natural protein)”, the kindlin partition coefficient (PC) in droplets of 5 uM each phosphorylated Nephrin, Nck and N-WASP with 1 uM kindlin (10% Alexa546), lacking pCas in experiment [2], in experiment [3] and in experiment [4] was 1 throughout. With “Paxillin (from UniProt P49023 1-591) (natural protein)”, the FAK enrichment (partitioning) in droplets, 1 uM FAK with 1 uM paxillin against 1 uM FAK alone in experiment [5] was determined as 2 fold. The substance “β1 integrin cytoplasmic tail-GFP (from UniProt P05556 752-798) (domain or fragment)” yielded an integrin-GFP partition coefficient (PC) in droplets of 1 uM each pCas, Nck, N-WASP, FAK, paxillin and β1 integrin tail with 1 uM kindlin (PC = 1.2 without kindlin) in experiment [6] of 3.
